A word on the Tm: it is the temperature at which the thermal transition is half complete.

Two proteins from FireProtDB (doi:10.1074/jbc.m005861200) can be followed below.

The conditions of this data set: pH 5, DSC, Unknown, reversible: yes, whole UniProt chain shown; for denaturant midpoint (higher = more stable): 25 °C, GdnHCl; for Tm / heat capacity change of unfolding / unfolding enthalpy (calorimetric): Thermal.
The mark [1] stands for this setting: Pseudomonas aeruginosa (strain ATCC 15692 / DSM 22644 / CIP 104116 / JCM 14847 / LMG 12228 / 1C / PRS 101 / PAO1).
Where [2] appears, read: Pseudomonas aeruginosa (strain ATCC 15692 / DSM 22644 / CIP 104116 / JCM 14847 / LMG 12228 / 1C / PRS 101 / PAO1), 47.3 °C.
[3] abbreviates: Hydrogenobacter thermophilus (strain DSM 6534 / IAM 12695 / TK-6).

B1: Cytochrome c-551 wild type, P00099 (protein)
chain: MKPYALLSLLATGTLLAQGAWAEDPEVLFKNKGCVACHAIDTKMVGPAYKDVAAKFAGQAGAEAELAQRIKNGSQGVWGPIPMPPNAVSDDEAQTLAKWVLSQK
Consider B1, for which, under setting [1], the “denaturant midpoint (higher = more stable)” value turned out to be 2.16 M, the Tm worked out at 47.3 °C, the “heat capacity change of unfolding” value was 0.72 kcal/mol/K and the “unfolding enthalpy (calorimetric)” value was found to be 158 kJ/mol. Under setting [2], the Tm was determined as 47.3 °C and the “heat capacity change of unfolding” value stood at 1.07 kcal/mol/K.

B2: Cytochrome c-552 wild type, P15452 (protein)
chain: MKKFLLVAVVGLAGITFANEQLAKQKGCMACHDLKAKKVGPAYADVAKKYAGRKDAVDYLAGKIKKGGSGVWGSVPMPPQNVTDAEAKQLAQWILSIK
As for B2, under setting [3], the “denaturant midpoint (higher = more stable)” value stood at 4.47 M, the Tm is 87.5 °C, the “heat capacity change of unfolding” value was 0.9 kcal/mol/K and the “unfolding enthalpy (calorimetric)” value turned out to be 154 kJ/mol.
